{
  "source": "paper PMC10686989",
  "about": "“Distinct activation mechanisms of β-arrestin-1 revealed by ^19F NMR spectroscopy” (Nature Communications, 2023)",
  "target": "cysteine-less β-arrestin-1 D390C, 19F-labelled with wPSP-6F (human) (UniProt P49407)",
  "sequence (P49407 whole entry C59V/C125S/C140L/C150V/C242V/C251V/C269S/D390C)": "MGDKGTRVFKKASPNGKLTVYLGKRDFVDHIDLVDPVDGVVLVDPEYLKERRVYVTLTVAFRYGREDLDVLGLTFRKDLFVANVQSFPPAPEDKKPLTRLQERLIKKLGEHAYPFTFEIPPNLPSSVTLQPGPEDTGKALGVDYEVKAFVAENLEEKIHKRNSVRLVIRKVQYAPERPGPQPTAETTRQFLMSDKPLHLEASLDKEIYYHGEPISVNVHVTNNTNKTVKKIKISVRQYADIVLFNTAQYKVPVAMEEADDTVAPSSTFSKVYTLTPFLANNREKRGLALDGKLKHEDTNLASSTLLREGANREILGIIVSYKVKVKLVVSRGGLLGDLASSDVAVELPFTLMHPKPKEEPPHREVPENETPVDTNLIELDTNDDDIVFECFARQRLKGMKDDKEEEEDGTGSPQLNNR",
  "experiment": "NMR titration; 19F NMR of wPSP-6F-labelled βarr1 (D390C site) titrated with phosphopeptide; 298 K, 20 mM Tris-HCl, 150 mM NaCl, pH 8.0; Kd estimated",
  "data": [
    {"substance": "V2Rpp, phosphopeptide derived from the vasopressin V2 receptor (V2R)", "values": [
      {"measurement": "Kd", "result": 1300, "unit": "nM"}
    ]}
  ]
}
